Results: patent US20200148732A1 (UNIVERSITY OF COPENHAGEN, published 2020)
Numbering of substitutions follows the chain as printed.

Assays:
GFP-TONSL E530A = biological target: T1, GFP-TONSL E530A (Homo sapiens, UniProt Q96HA7 1-1378); test: GFP immunoprecipitation of GFP-TONSL from transfected HeLa S3 cells, western blot (co-IP; association may be indirect)
T1 construct: also called TONSL E530A / GFP; not shown: N-terminal GFP tag
T1 sequence: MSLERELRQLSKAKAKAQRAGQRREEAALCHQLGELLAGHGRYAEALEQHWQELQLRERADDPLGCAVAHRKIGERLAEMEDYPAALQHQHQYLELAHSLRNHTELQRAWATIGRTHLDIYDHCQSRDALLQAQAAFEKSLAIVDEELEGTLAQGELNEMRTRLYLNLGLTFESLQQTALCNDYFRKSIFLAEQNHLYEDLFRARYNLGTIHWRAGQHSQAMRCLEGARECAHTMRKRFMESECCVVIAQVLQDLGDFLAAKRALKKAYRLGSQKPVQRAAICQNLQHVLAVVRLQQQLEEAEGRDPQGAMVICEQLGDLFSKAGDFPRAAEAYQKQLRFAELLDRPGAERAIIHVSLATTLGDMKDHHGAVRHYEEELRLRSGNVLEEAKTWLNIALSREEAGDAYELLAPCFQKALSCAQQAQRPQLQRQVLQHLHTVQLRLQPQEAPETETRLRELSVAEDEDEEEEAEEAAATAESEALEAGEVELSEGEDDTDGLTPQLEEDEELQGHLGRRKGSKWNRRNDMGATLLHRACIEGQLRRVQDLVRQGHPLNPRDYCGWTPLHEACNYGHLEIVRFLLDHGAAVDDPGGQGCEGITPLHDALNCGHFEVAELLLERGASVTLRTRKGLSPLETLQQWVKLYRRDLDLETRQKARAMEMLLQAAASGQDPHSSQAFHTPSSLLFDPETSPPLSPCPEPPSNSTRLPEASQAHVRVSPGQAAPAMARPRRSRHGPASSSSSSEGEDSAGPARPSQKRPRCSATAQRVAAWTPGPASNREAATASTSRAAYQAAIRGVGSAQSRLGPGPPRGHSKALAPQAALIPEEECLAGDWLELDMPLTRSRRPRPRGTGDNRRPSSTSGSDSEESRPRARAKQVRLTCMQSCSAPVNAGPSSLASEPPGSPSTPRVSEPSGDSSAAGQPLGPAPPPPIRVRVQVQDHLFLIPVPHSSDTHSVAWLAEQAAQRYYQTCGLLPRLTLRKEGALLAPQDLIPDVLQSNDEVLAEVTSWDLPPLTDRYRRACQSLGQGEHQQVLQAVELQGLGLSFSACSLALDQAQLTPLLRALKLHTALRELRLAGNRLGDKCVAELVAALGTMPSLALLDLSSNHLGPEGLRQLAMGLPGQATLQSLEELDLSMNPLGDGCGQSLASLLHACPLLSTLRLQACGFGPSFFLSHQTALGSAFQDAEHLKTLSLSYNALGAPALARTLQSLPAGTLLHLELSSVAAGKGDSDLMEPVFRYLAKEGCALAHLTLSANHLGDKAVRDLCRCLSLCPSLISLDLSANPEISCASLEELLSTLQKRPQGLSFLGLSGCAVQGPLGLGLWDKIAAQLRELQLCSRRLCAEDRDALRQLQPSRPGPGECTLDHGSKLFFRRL

GFP-TONSL D559A = biological target: T2, GFP-TONSL D559A (Homo sapiens, UniProt Q96HA7 1-1378); test: as above
T2 construct: also called TONSL D559A / GFP; not shown: N-terminal GFP tag
T2 sequence: T1 sequence with A530E, D559A

B1: MMS22L (endogenous, in cell extracts) (other, UniProt Q6ZRQ5 1-1243, looked up)
chain: MENCSAASTFLTDSLELELGTEWCKPPYFSCAVDNRGGGKHFSGESYLCSGALKRLILNLDPLPTNFEEDTLEIFGIQWVTETALVNSSRELFHLFRQQLYNLETLLQSSCDFGKVSTLHCKADNIRQQCVLFLHYVKVFIFRYLKVQNAESHVPVHPYEALEAQLPSVLIDELHGLLLYIGHLSELPSVNIGAFVNQNQIKLFPPSWHLLHLHLDIHWLVLEILYMLGEKLKQVVYGHQFMNLASDNLTNISLFEEHCETLLCDLISLSLNRYDKVRSSESLMSDQCPCLCIKELWVLLIHLLDHRSKWFVSESFWNWLNKLLKTLLEKSSDRRRSSMPVIQSRDPLGFSWWIITHVASFYKFDRHGVPDEMRKVESNWNFVEELLKKSISVQGVILEEQLRMYLHCCLTLCDFWEPNIAIVTILWEYYSKNLNSSFSISWLPFKGLANTMKSPLSMLEMVKTCCCDKQDQELYKSSSSYTIFLCILAKVVKKAMKSNGPHPWKQVKGRIYSKFHQKRMEELTEVGLQNFFSLFLLLAAVAEVEDVASHVLDLLNFLKPAFVTSQRALIWKGHMAFLLMYAQKNLDIGVLAEKFSCAFREKAKEFLVSKNEEMVQRQTIWTLLSIYIDGVQEVFETSYCLYPSHEKLLNDGFSMLLRACRESELRTVLSFLQAVLARIRSMHQQLCQELQRDNVDLFVQSSLSAKERHLAAVASALWRHFFSFLKSQRMSQVVPFSQLADAAADFTLLAMDMPSTAPSDFQPQPVISIIQLFGWDDIICPQVVARYLSHVLQNSTLCEALSHSGYVSFQALTVRSWIRCVLQMYIKNLSGPDDLLIDKNLEEAVEKEYMKQLVKLTRLLFNLSEVKSIFSKAQVEYLSISEDPKKALVRFFEAVGVTYGNVQTLSDKSAMVTKSLEYLGEVLKYIKPYLGKKVFSAGLQLTYGMMGILVKSWAQIFATSKAQKLLFRIIDCLLLPHAVLQQEKELPAPMLSAIQKSLPLYLQGMCIVCCQSQNPNAYLNQLLGNVIEQYIGRFLPASPYVSDLGQHPVLLALRNTATIPPISSLKKCIVQVIRKSYLEYKGSSPPPRLASILAFILQLFKETNTDIYEVELLLPGILKCLVLVSEPQVKRLATENLQYMVKACQVGSEEEPSSQLTSVFRQFIQDYGMRYYYQVYSILETVATLDQQVVIHLISTLTQSLKDSEQKWGLGRNIAQREAYSKLLSHLGQMGQDEMQRLENDNT
B1: binds (GFP-TONSL E530A); binds (GFP-TONSL D559A).
